Assay results published in paper PMC4663276.

Columns and labels:
[1] = molecular target: TirM-TarP FL (full-length C. caviae GPIC TarP fused to TirM) (Chlamydia caviae strain GPIC)
[2] = molecular target: TirM-ΔVBS1 (TarP VBD deleted for VBS1, Thr714-Arg832, fused to TirM) (Chlamydia caviae strain GPIC)

vinculin (natural protein)
frequency of vinculin recruitment to Δtir EPEC-clustered TirM fusion at the plasma membrane of Cos7 cells (immunofluorescence), TarP-FL relative to TirM-TarP1-714 [1]: 3 fold | frequency of vinculin recruitment to Δtir EPEC-clustered TirM fusion at the plasma membrane of Cos7 cells (immunofluorescence), decrease relative to WT VBD [2]: 1.6 fold
